In US5336488A, “Method of treating or preventing mastitis in animals with involuting mammary glands by administering recombinant cytokines” (American Cyanamid Company, priority 1992, dated 1994):

Key:
[1] = test system: S. aureus; test: Therapy of established S. aureus mastitis infections; assay type: in vivo, S. aureus (in lactating Holstein dairy cattle)
Experimental: The percentage of quarters clearing the infection for greater than 1 milking (RESPONDING), as compared to the percentage of quarters which actually cure their infections (CURE) is a measure of the failure of the host cells to kill the bacteria. The relapse rate is the greatest for r-BoIL-2 (combined relapse rate of 40% for the 10 mg dose X's 3). […] Furthermore, if activation of the host cells is effective, as indicated by the r-BoIL-2 and r-BoGM-CSF, then a combination therapy with r-BoIL-1 or antibiotics is useful.
^1 S. aureus infections are established 2-3 weeks prior to treatment.
Treatments are administered after the AM or PM milking by 1-3 successive
intramammary infusions. A total of 120 mammary glands from 28 different
lactating Holstein dairy cattle are used. Recombinant bovine
interleukin1(IL-1) and interleukin2(IL-2) are obtained from IMMUNEX Corp.
Seattle, WA. Na cephapirin is prepared is PBS; and CefaLak ®
(BristolMeyers) is used according to package# insert instructions.
^2 Cytokines are infused intramammary through the teat canal after th
PM milking at the indicated intervals. The total dose is delivered in a
total volume of 10 ml of sterile PBS. The biological activity of rBoIL-1
and rBoIL-2 is 32,000 Units/μg and 22,000 Units/μg, respectively. A
total dose per infusion 200 mg of Na cephapirin and CefaLak ® is
administered after consecutive PM and AM milkings, according to described
^3 The % RESPONDING = quarters which transiently (> 1 milking) are
free of S. aureus divided by the total number of quarters treated.
^4 The % CURED QUARTERS = # of quarters which clear their infection
and remain free of S. aureus divided by the total number of quarters
treated. Infections are considered to have relapsed if there are > 1 CFUs
from three consecutive AM milkings, or > 20 CFUs for two consecutive afte
therapy at anytime during the 14 day monitoring period.
^5 The % RELAPSE = [1 - {[…]}] ×

[2] = test system: S. aureus; test: Prevention of S. aureus mastitis in lactating animals; assay type: in vivo, S. aureus (in lactating Holstein dairy cattle); settings: for % CONTROL / % INFECTED: 1 mg, vs Control 2 (30 CFUs)
Text: This maximal protection correlates with the peak quantitative biological response for this cytokine. […] This also correlates with the peak quantitative biological response of this cytokine and also marks the qualitative increase in phagocytosis and inducible superoxide, FIG. 2D & 2E.
^1 Single intramammary infusion administered after the PM milking. A
total of 100 mammary glands from 22 different lactating Holstein dairy
^2 All glands are free of bacteria on 5 successive samples after the
AM milking prior to the initial infusion.
^3 The total dose in mass of protein is indicated. The biological
^4 Infusions of cytokines were administerd simultaneously with S.
aureus 0, 24 or 48 hours proir to challenge with 30-200 CFUs of S.
^5 Individual quarters are considered cured if the milk samples remai
free of S. aureus. for 14 days after intramammary challenge with of S.
^6 The % Control = (1 - {% Infected After Therapy divided by Infected
in Control Quarters)} × 100.
*Quarters in Control 1 are challenged with 250 CFUs of S. aureus..
Quarters in Control 2 are challenged with 30 CFUs of S. aureus.

[3] = test system: milk PMNs; test: Phagocytosis of fluorescent beads by milk PMNs (flow cytometry) after intramammary infusion; assay type: in vivo, bovine (Holstein dairy cattle); settings: FIG. 2H
Experimental: (§1) FIGS. 2(A-I): Quantity and Quality of Milk PMNs from Mammary Glands Infused with r-BolL-1 or r-BoIL-2
(§2) A total of 12 mammary glands from normal lactating Holstein dairy cattle are infused through the teat canal with either 200 μg of r-BoIL-1; 2 mg of r-BoIL-2; or 1 mg of r-BoGM-CSF. Milk samples are collected and the number of viable somatic cells counted on a Coulter® ZM with a C256 Channelyzer. The data is expressed as the somatic cell count per ml of milk sampled at 16, 40, 64 and 88 hours after infusion for r-BoIL-1 (A); r-BoIL-2 (D); or r-BoGM-CSF(G). The total percentage of phagocytosis by milk PMNs (polymorphonuclear cells) is quantitatively measured by flow cytometry by measuring the percentage of cells ingesting 2μ fluorescent beads for r-BoIL-1 (B); r-BoIL-2(E); or r-BoGM-CSF(H). The total population is first gated by forward angle light scatter, FALS and 90° light scatter to only consider viable polymorphonuclear cells. The induction of superoxide after PMA (520.eta.g)stimulation is also monitored using a whole cell cytochrome-c reduction assay, for r-BoIL-1 (C); r-BoIL-2(F); or r-BoGM-CSF(I). PMNs from untreated milk could not be induced to produce superoxide, while peripheral blood PMNs are inducible in a range of 5-15 .eta.M O2 /Minute/10^7 PMNs.

[4] = test system: milk PMNs; test: Quantity of milk PMNs after intramammary infusion; assay type: in vivo, bovine (Holstein dairy cattle)
Experimental: as §1, §2

[5] = test system: Bovine Mammary Gland; test: Dose response of bovine mammary gland to intramammary infusion: somatic cell influx into milk; assay type: in vivo, bovine (Holstein dairy cattle)
Experimental: FIG. 1: Dose Response of Bovine Mammary Gland to Intramammary Infusion of Recombinant Cytokines
Five fold serial dilutions of r-BolL-1 (recombinant bovine interleukin-1) from 312.5 μg to […]: r-BoIL-2 (recombinant bovine interleukin-2) from 40 mg to 0.1 mg: and r-BoGM-CSF (recombinant bovine granulocyte macrophage colony stimulating factor) from 0.2 mg to […] are administered at time 0 into 3-4 mammary glands from normal lactating Holstein dairy cattle. A total of 54 mammary gland quarters, 3-4 per group, are infused through the teat canal with various concentrations of recombinant bovine cytokines after the morning milking. Milk samples are collected and the number of viable somatic cells counted on a Coulter® ZM with a C256 Channelyzer. The data is expressed as the somatic cell count per ml of milk
These doses are guidelines for quantitative induction of somatic cells, but significant beneficial qualitative changes can be induced with lower doses. The specific biological activity for r-BoIL-1 as a chemoattractant is approximately 10,000 fold greater than r-BoIL-2, although the in vitro specific bioactivities are equivalent. Active IL-2 inhibition or decreased biostability in milk might explain this discrepancy. The peak number of cells after r-BoIL-1 infusion with a maximal tolerable dose is 4-5 fold greater than r-BoIL-2. The kinetics of PMN migration into the mammary gland is such that migration occurs 8- 24 hours sooner for r-BoIL-1 infusions […] the BolL-2 infusion depending upon the dose. The dominant cell type after r-BoIL-1 or r-BoIL-2 infusion is PMNs.

[6] = Specific biological activity of recombinant cytokine protein; settings: mass of protein
[7] = test system: milk PMNs; test: Inducible superoxide of milk PMNs after PMA stimulation (cytochrome-c reduction); assay type: in vivo, bovine (Holstein dairy cattle); settings: r-BoGM-CSF, vs resident PMNs, FIG. 2I
Experimental: as §1, §2

Molecule | % CURES ([1]; 200 mg, interval 12 hrs) | % RELAPSE ([1]; 200 mg, interval 12 hrs) | % RESPONSE ([1]; 200 mg, interval 12 hrs) | relapse rate ([1]; as quoted in text of Example 5) | % CONTROL ([2]; -24 hrs) | % INFECTED ([2]; -24 hrs) | % CONTROL ([2]; -48 hrs) | % INFECTED ([2]; -48 hrs) | protection from S. aureus ([2]; administered 24 and 48 hours prior to challenge) | protection from subsequent S. aureus challenge ([2]; intramammary infusion, Table 1) | phagocytic ability of the cells in the milk of treated glands ([3]; 24 and 48 hours) | percent of cells which are phagocytic ([3]; r-BoGM-CSF) | increase in phagocytosis, duration ([3]; r-BoGM-CSF, up to 112 hrs) | quantitative changes in milk PMNs ([4]; as summarised in Example 4) | quantitative increase in milk PMNs ([4]; even with a 5 mg intramammary dose, FIG. 2G) | influx of cells into the mammary gland ([5]; intramammary infusion of up to 5 mg) | infiltration of somatic cells into the milk ([5]; intramammary infusion, lactating cattle, FIG. 1) | biological activity [6] | inducible superoxide production [7]
CC(=O)OCC1=C(C(=O)O)N2C(=O)[C@@H](NC(=O)CSc3ccncc3)[C@H]2SC1 [Na Cephapirin, sodium cephapirin, reference compound] | 42% | 51% | 86% | 57% |  |  |  |  |  |  |  |  |  |  |  |  |  |  | 
recombinant bovine granulocyte macrophage colony stimulating factor (protein, UniProt P11052 18-143, looked up) Granulocyte-macrophage …: APTRPPNTATRPWQHVDAIKEALSLLNHSSDTDAVMNDTEVVSEKFDSQEPTCLQTRLKLYKNGLQGSLTSLMGSLTMMATHYEKHCPPTPETSCGTQFISFKNFKEDLKEFLFIIPFDCWEPAQK |  |  |  |  | 76% | 20% | 76% | 20% | good protection from S. aureus | capable of protecting the host from subsequent S. aureus challenge | increase phagocytic ability | enhanced | maintained above pre-infusion levels for up to 112 hrs | only minor quantitative changes in milk PMNs | fails to elicit any significant quantitative increase in milk PMNs | fails to elicit any significant influx of cells into the mammary gland | no significant chemoattractant activity | 38,000 Units/μg | increased over the resident PMNs
